B1: YidC23C labelled with Atto520 (YidC W23C, single cysteine) (natural protein)
chain: MDSQRNLLVIALLFVSFMIWQACEQDKNPQPQAQQTTQTTTTAAGSAADQGVPASGQGKLISVKTDVLDLTINTRGGDVEQALLPAYPKELNSTQPFQLLETSPQFIYQAQSGLTGRDGPDNPANGPRPLYNVEKDAYVLAEGQNELQVPMTYTDAAGNTFTKTFVLKRGDYAVNVNYNVQNAGEKPLEISSFGQLKQSITLPPHLDTGSSNFALHTFRGAAYSTPDEKYEKYKFDTIADNENLNISSKGGWVAMLQQYFATAWIPHNDGTNNFYTANLGNGIAAIGYKSQPVLVQPGQTGAMNSTLWVGPEIQDKMAAVAPHLDLTVDYGWLWFISQPLFKLLKWIHSFVGNWGFSIIIITFIVRGIMYPLTKAQYTSMAKMRMLQPKIQAMRERLGDDKQRISQEMMALYKAEKVNPLGGSFPLLIQMPIFLALYYMLMGSVELRQAPFALWIHDLSAQDPYYILPILMGVTMFFIQKMSPTTVTDPMQQKIMTFMPVIFTVFFLWFPSGLVLYYIVSNLVTIIQQQLIYRGLEKRGLHSREKKKS
modifications: Atto520 (maleimide dye) on cysteine 23; labelling efficiency 18%
B2: SecYEG with SecY142C labelled with Atto647N (complex)
chain 1: MAKQPGLDFQSAKGGLGELKRRLLFVIGALIVFRIGSFIPIPGIDAAVLAKLLEQQRGTIIEMFNMFSGGALSRASIFALGIMPYISASIIIQLLTVVHPTLAEIKKEGESGRRKISQYTRYGTLVLAIFQSIGIATGLPNCPGMQGLVINPGFAFYFTAVVSLVTGTMFLMWLGEQITERGIGNGISIIIFAGIVAGLPPAIAHTIEQARQGDLHFLVLLLVAVLVFAVTFFVVFVERGQRRIVVNYAKRQQGRRVYAAQSTHLPLKVNMAGVIPAIFASSIILFPATIASWFGGGTGWNWLTTISLYLQPGQPLYVLLYASAIIFFSFFYTALVFNPRETADNLKKSGAFVPGIRPGEQTAKYIDKVMTRLTLVGALYITFISLIPEFMRDAMKVPFYFGGTSLLIVVVVIMDFMAQVQTLMMSSQYESALKKANLKGYGR
chain 2: MSANTEAQGSGRGLEAMKWVVVVALLLVAIVGNYLYRDIMLPLRALAVVILIAAAGGVALLTTKGKATVAFAREARTEVRKVIWPTRQETLHTTLIVAAVTAVMSLILWGLDGILVRLVSFITGLRF
chain 3: MYEALLVVFLIVAIGLVGLIMLQQGKGADMGASFGAGASATLFGSSGSGNFMTRMTALLATLFFIISLVLGNINSNKTNKGSEWENLSAPAKTEQTQPAAPAKPTSDIPN
modifications: Atto647N (maleimide dye) on cysteine 142; labelling efficiency 24%

How the values were obtained:
[1] = molecular target: B2; experiment: FRET or BRET; ensemble FRET in detergent: 0.55 µM YidC-Atto520 (donor) in 0.03% dodecyl maltoside titrated with increasing SecYEG-Atto647N (acceptor); excitation 516 nm, donor at 538 nm, acceptor at 669 nm; buffer controls for dilution; Kd by Lineweaver-Burk linearisation; conditions: both partners purified
[2] = molecular target: B1; experiment: as above; conditions: both partners purified

| Binder | Kd [1] | stoichiometry N [2] |
| --- | --- | --- |
| B1 | 0.027 ± 0.01 µM | – |
| B2 | – | 1 |

— publication PMC7886851 (Scientific Reports, 2021)
